From patent US20090068110A1, “ANTIBODIES TO INSULIN-LIKE GROWTH FACTOR RECEPTOR” (Genentech, Inc., priority 2006, published 2009)

B1: 10H5: mouse monoclonal anti-IGF-1R antibody from hybridoma 10H5.3.4, ATCC PTA-7007 (antibody, V domains shown)
VH: QVQLQQPGAELVKPGASVTLSCKASGYTFTRFWIHWVKQRPGQGLEWIGEINPSNGRTNYNENFKNKATLTVDTSSSTAYMQLSSLTSEVSVVYYCARGGRLDQWGQGTT
VL: DIVMTQSQKFMSTSLGDRVSVTCKASQNVGSNVAWYQQKPGQSPEALIYSASYRYSGVPDRFTGSGSGTDFTLTISNVQSEDLAEYFCHQYNNYPYTFGGGTKVEIKR
B2: 9F2: mouse monoclonal anti-IGF-1R antibody from hybridoma 9F2.6.2, ATCC PTA-7018 (antibody, V domains shown)
VH: QIQLVQSGPELKKPGETVKISCKASGYTLANYGMNWVKQAPGKGFKWMGWINTNTGKPTYSDEFKGRFVFSLETSASTAYLLINNLSNEDTATYFCARSIYYYGSRYFNVWGAGTT
VL: DIQMTQSTSSLSASLGDRVTISCRASQDINNYLTWYQQKPDGTVKLLIYYTSRLHSGVPSRFSGSGSGTDYSLTITNLEQEDFATYFCQQGNTLPWTFGEGTKVEIKR

Columns and labels:
HCT15 = assay: cell viability assay, HCT15; format: cell-based, human; set-up: key: +: growth inhibition; −: no or weak effect; details: HCT15, Colorectal Adenocarcinoma
Method: (§1) The different cell lines were cultured in their respective culture media at 37° C. in a humidified atmosphere of 5% CO2. Subsequently, cells were detached from tissue-culture flasks using the cell-dissociation solution, TRIPLE SELECT™ solution (InVitrogen, Carlsbad, Calif., USA), and centrifuged at 1000 rpm for five minutes. Detached cells were washed once with PBS, counted, and seeded in 96-well plates (Corning, N.Y., USA) at 2000 cells per well in 100 μL of culture media. After an overnight incubation at 37° C. in a humidified atmosphere of 5% CO2, the cell-culture medium was replaced with 50 μL of starvation medium consisting of serum-free RPMI 1640™ medium without phenol red. The cells were then starved for five hours in the incubator before addition of 25 μL of each anti-IGF-1R monoclonal antibody at various dilutions in serum-free RPMI 1640™ phenol red-free media. Later, 25 μL of phenol red-free RPMI 1640™ media supplemented with 4% of fetal bovine serum (FBS) (Sigma) with or without 4 ng/ml of human recombinant IGF-I were added on top of the 50 μL of antibody. The cells were then placed at 37° C. with 5% CO2 for 5 to 6 days. At the end of the assay, cell viability was measured using the […]-GLO® kit according to the manufacturer's instructions (Promega, Madison, Wis., USA).

T47D = assay: cell viability assay, T47D; format: cell-based, human; set-up: key: +: growth inhibition; −: no or weak effect; details: Breast Ductal Carcinoma
Method: as §1

IGF-1R [1] = molecular target: T1, IGF-1R (Homo sapiens, UniProt P08069); assay: KIRA assay of IGF-1R phosphorylation in MCF7 cells; format: cell-based; set-up: IGF-1R is normally localized at the plasma membrane of MCF7 cells; endogenous in cells; host or cells: MCF7; details: IGF-I 10 ng/ml or IGF-II 50 ng/ml; ranking upon IGF-II stimulation
Method: Also examined was whether the blocking activity of these antibodies was sufficient to interfere with receptor activation, which is measured by IGF-1R phosphorylation. A KIRA assay (kinase receptor activation) was utilized to perform quantitative analysis of IGF-1R phosphorylation in MCF7 cells. Anti-IGF-1R antibodies in serial dilutions (0.19 to 200 nM in medium) were added to MCF7 cells in 96-well plates for one hour. IGF-I (10 ng/ml) or IGF-11 (50 ng/ml) was subsequently added and incubated for ten minutes. The cells were lysed, and the resulting lysates were transferred to an ELISA plate, which was coated with IGF-1R-capturing antibody 3B7 (250 ng/well). After incubation for two hours, the cell lysate was removed, and the plates were washed. Phosphotyrosine-specific antibody 4G10 (Upstate, Charlottesville, Va., USA) was added to detect IGF-1R phosphorylation through TMB peroxidase substrate.

HELA = assay: cell viability assay, HELA; format: cell-based, human; set-up: key: +: growth inhibition; −: no or weak effect; details: Cervix Adenocarcinoma
Method: as §1

IGF-1R [2] = molecular target: T1, IGF-1R; assay: BIACORE surface-plasmon resonance, human IGF-1R; format: binding; set-up: containing the extracellular domain (ECD, amino acids 1-902) tagged with 10 or 12 histidine residues at the carboxyl terminus; His10 or His12 (C); made in house; host or cells: CHO cells; details: affinity measurements, FIG. 14
Method: Binding affinities of antibodies to IGF-1R were determined by surface-plasmon resonance measurements on a BIACORE™ 3000 instrument (BIAcore, Inc.). Human IGF-1R-ECD was immobilized at a density of about 500 RU on the flow cells of a PIONEER™ CM5 sensor chip. Immobilization was achieved by random coupling through amino groups using a protocol provided by the manufacturer. Sensorgrams were recorded for binding of anti-IGF-1R Fab or IgG to these surfaces by injection of a series of solutions ranging from 500 nM to 3.1 nM and 250 nM to 0.78 nM in 2-fold increments, respectively. The signal from the reference cell was subtracted from the observed sensorgram. Kinetic constants were calculated by nonlinear regression analysis of the data according to a 1:1 Languir binding model using software supplied by the manufacturer. […]
Binding affinities of selected antibodies to IGF-1R were determined by surface plasmon resonance measurements on a BIACORE™ 3000 instrument (BIAcore, Inc.). […] Sensorgrams were recorded for binding of anti-IGF-1R Fab or IgG to these surfaces by injection of a series of solutions ranging from 500 nM to 3.1 nM and 250 nM to 0.78 nM in two-fold increments, respectively. […] Kinetic constants were calculated by non-linear regression analysis of the data according to a 1:1 Languir binding model using software supplied by the manufacturer.

murine IGF-1R = molecular target: T2, murine IGF-1R (Mus musculus, UniProt Q60751); assay: BIACORE surface-plasmon resonance, murine IGF-1R; format: binding
T2 construct: evaluated against human and murine IGF-1R-ECD
Method: Before HVR grafting, murine 2B4, 9F2, and 10H5Fab binding affinities were evaluated against human and murine IGF-1R-ECD using BIACORE™ instrument analysis. The procedure used was that for BIACORE™ instrument analyses generally, wherein the analyte was anti-IGF-1R Fab (500 nM-[…]; two-fold serial dilution), the ligand was IGF-1R (about 500 RU)-coated CM5 sensor chip, and the temperature was 25° C.
Binding affinities of selected antibodies to IGF-1R were determined by surface plasmon resonance measurements on a BIACORE™ 3000 instrument (BIAcore, Inc.). Human, murine, or cynomolgus-monkey IGF-1R was immobilized at a density of about 500 RU on the flow cells of a PIONEER™ CM5 sensor chip. Immobilization was achieved by random coupling through amino groups using a protocol provided by the manufacturer. Sensorgrams were recorded for binding of anti-IGF-1R Fab or IgG to these surfaces by injection of a series of solutions ranging from 500 nM to 3.1 nM and 250 nM to 0.78 nM in two-fold increments, respectively. The signal from the reference cell was subtracted from the observed sensorgram. Kinetic constants were calculated by non-linear regression analysis of the data according to a 1:1 Languir binding model using software supplied by the manufacturer.

KM12 = assay: cell viability assay, KM12; format: cell-based, human; set-up: key: +: growth inhibition; −: no or weak effect; details: KM12, Colorectal Adenocarcinoma
Method: as §1

SJCRH30 = assay: cell viability assay, SJCRH30; format: cell-based, human; set-up: key: +: growth inhibition; −: no or weak effect; details: SJCRH30, Rhabdomyosarcoma
Method: as §1

DLD1 = assay: cell viability assay, DLD1; format: cell-based, human; set-up: key: +: growth inhibition; −: no or weak effect; details: DLD1, Colorectal Adenocarcinoma
Method: as §1

T2 sequence (Q60751 31-737 limits assumed): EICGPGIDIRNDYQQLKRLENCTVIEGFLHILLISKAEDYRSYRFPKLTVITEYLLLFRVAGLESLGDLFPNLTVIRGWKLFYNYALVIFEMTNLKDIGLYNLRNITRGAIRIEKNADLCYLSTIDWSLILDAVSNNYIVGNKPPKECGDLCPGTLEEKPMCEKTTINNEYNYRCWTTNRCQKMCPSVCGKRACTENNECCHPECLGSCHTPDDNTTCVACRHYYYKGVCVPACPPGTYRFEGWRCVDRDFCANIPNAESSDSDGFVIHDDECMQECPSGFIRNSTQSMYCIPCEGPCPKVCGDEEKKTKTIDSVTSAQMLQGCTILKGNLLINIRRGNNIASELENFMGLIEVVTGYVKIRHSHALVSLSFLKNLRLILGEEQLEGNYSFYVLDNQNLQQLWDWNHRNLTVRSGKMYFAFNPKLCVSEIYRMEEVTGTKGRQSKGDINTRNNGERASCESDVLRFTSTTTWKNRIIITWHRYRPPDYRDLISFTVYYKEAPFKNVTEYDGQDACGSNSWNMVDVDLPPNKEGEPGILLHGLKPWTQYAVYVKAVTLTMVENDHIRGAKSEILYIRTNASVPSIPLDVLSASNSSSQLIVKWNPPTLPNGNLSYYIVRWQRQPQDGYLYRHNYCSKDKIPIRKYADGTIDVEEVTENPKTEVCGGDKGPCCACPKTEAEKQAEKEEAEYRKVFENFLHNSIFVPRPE
T2 sequence (Q60751 742-936 limits assumed): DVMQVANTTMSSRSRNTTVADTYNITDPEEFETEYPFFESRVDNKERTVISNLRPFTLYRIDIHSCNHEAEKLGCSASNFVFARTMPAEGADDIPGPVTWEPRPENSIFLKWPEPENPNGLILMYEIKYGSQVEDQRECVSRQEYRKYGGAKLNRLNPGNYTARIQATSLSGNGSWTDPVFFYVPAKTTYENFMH

Molecule | Effect of IR3, 6D2, 9F2, and 10H5 (HCT15) | Effect of IR3, 6D2, 9F2, and 10H5 (T47D) | inhibition of IGF-I/II-mediated IGF-1R phosphorylation (KIRA) (IGF-1R [1]) | Effect of IR3, 6D2, 9F2, and 10H5 (HELA) | binding to human IGF-1R (IGF-1R [2]) | binding to mouse IGF-1R (murine IGF-1R) | Effect of IR3, 6D2, 9F2, and 10H5 (KM12) | Effect of IR3, 6D2, 9F2, and 10H5 (SJCRH30) | Effect of IR3, 6D2, 9F2, and 10H5 (DLD1)
B1 | − | − | most effective group | + | strong binding to human IGF-1R | not to mouse IGF-1R or human insulin receptor | − | + | −
B2 | − | − | most effective group | + | strong binding to human IGF-1R | not to mouse IGF-1R or human insulin receptor | − | + | −
